Results from publication PMC11793764, “A universal method for the purification of C2H2 zinc finger arrays”.

Molecular target: CCR5L (designed (synthetic))
Assay: MST; 100 uM ZnCl2; MST: 20 mM Tris-HCl pH 7.5, 200 mM NaCl, 0.01% Tween-20, 100 uM ZnCl2, 0.1 mM TCEP; TZAP arrays: 20 mM Tris-HCl pH 7.0, 50 mM NaCl, 0.1% Tween-20, 100 uM ZnCl2, 0.1 mM TCEP; temperature not stated
Settings: protein: recombinant; tags: His-SUMO cleaved by Ulp1; Cy5-maleimide on terminal Cys; hairpin

Chain of CCR5L (designed (synthetic)) (chain, as listed by the source): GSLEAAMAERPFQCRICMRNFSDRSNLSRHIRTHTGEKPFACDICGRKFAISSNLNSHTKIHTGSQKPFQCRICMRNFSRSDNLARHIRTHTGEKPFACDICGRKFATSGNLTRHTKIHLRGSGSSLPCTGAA

B1: ccr5l-wt (structured_DNA)
DNA: GGCTTCCGCTGTCATCCTCATCAGGTTTTCCTGATGAGGATGACAGCGGAAGCC
Kd: 5.7 nM
